Assay results taken from patent US20220242944A1.

Target: recombinant human PDGF-B (human) (UniProt P01127)
Assay: SPR (Biacore T200), antibody captured by anti-human Fc, antigen as analyte, 25 degrees C, pH 7.4, 1:1 model

UniProt P01127, sequence (P01127 82-190 limits assumed): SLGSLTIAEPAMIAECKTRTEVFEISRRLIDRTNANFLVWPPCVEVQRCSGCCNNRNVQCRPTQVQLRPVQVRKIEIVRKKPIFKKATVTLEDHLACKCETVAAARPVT

Kd [nM] | Binder
0.0202 | CPR001-GL-F1332m (antibody, V domains shown) VH: EVQLLESGGGLVQPGGSLRLSCAASGFTFSSYAMSWVRQAPGKGLEWVSYISDDGSLKYYADSVKGRFTISRDNSKNTLYLQMNSLRAEDTAVYYCAKHPYWYGGQLDLWGQGTLVTVSS VL: SYELTQPPSVSVSPGQTASITCSGDSLGSYFVHWYQQKPGQSPVLVIYDDSNRPSGIPERFSGSNSGNTATLTISGTQAMDEADYYCSAFTHNSDVFGGGTKLTVL
0.0165 | CPR001GLVH/xIC17-SG181v14hk (bispecific antibody, part only; not given: IC17 control arm and constant region, V domains shown, part only) VH: EVQLLESGGGLVQPGGSLRLSCAASGFTFSSYAMSWVRQAPGKGLEWVSYISDDGSLKYYADSVKGRFTISRDNSKNTLYLQMNSLRAEDTAVYYCAKHPYWYGGQLDLWGQGTLVTVSS VL: SYELTQPPSVSVSPGQTASITCSGDSLGSYFVHWYQQKPGQSPVLVIYDDSNRPSGIPERFSGSNSGNTATLTISGTQAMDEADYYCSAFTHNSDVFGGGTKLTVL
